Results published in the supplement of paper PMC12042874.
± gives the uncertainty stated by the source.

assay: amyloid nucleation score (Sup35N fusion, yeast selection) (log enrichment); library NNK2; higher = more nucleation; inactive = no reads after selection
Summary of the method: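 Libraries of peptides of 20 random codons fused to Sup35N were expressed in psi-negative yeast and induced 24 hours with 100 μM copper sulfate. Selection was 7 days at 30°C on medium lacking adenine and uracil, and plasmid inserts were Illumina-sequenced before and after selection. Nucleation score is the DiMSum log enrichment of output over input reads, centred on the mode score of non-aggregating sequences, and sequences with under 100 input reads were left out.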

| Substance | amyloid nucleation score |
| --- | --- |
| TFATYTISNCLYVPRPVT | 0.879 ± 0.19 |
| TFFGWLALRIWARYRYE | inactive |
| TFLLAFFIFFLNG | -0.306 ± 0.53 |
| TFLTLA | 0.979 ± 0.4 |
| TFNRFFRCSVFAFRA | 4.53 ± 0.062 |
| TFPMEFLPF | -1.12 ± 0.49 |
| TFRYVWLSHPV | 3.63 ± 0.11 |
| TFTFDGRSSNFG | -0.343 ± 0.55 |
| TFVLSNC | -0.356 ± 0.65 |
| TGCMSFSWPWTLLVSPIQLS | -0.651 ± 0.48 |
| TGDSYLYRWVSARFGHRLRS | -0.314 ± 0.27 |
| TGFNRCGSRWWLLVSNVKLV | -0.388 ± 0.54 |
| TGHFKKYVKGEGADDSNCAL | 0.347 ± 0.29 |
| TGNVTGRLFWNVFVRYSGVL | -0.03 ± 0.55 |
| TGQKFT | -0.615 ± 0.41 |
| TGTFRIAWM | 6.64 ± 0.063 |
| TGVIAYVRKVGDLSSCVYSC | 3.6 ± 0.14 |
| TGYAWGG | 2.16 ± 0.22 |
| THKNLEC | 0.681 ± 0.17 |
| THLKYTFWIFV | 2.62 ± 0.14 |
| THLLVVWFDNRYF | 0.978 ± 0.74 |
| THQRAYCFSSVYWVNVSKSG | -0.006 ± 0.74 |

| Substance | amyloid nucleation score |
| --- | --- |
| THTLRGLQANRMISNNMDTI | -0.402 ± 0.61 |
| TICVSSVRRTGKGSWVRDWA | 0.356 ± 0.5 |
| TIFLFLFSMVSVVICLMVLP | -1.31 ± 0.55 |
| TIGRGYGSISQRHAIRLGDN | 0.164 ± 0.8 |
| TIIRMKLS | 1.39 ± 0.39 |
| TIWVATLDFPNSYMSSALFV | 4.27 ± 0.093 |
| TKDERFV | 0.218 ± 0.29 |
| TKLLP | -0.149 ± 0.55 |
| TLCRGTVLVAFGSPNITPSK | 3.89 ± 0.059 |
| TLCTVSHLNDSLLIFIRFVV | inactive |
| TLFSYEYVYKFMGPRFKGAG | -0.746 ± 0.54 |
| TLGTFVWVFRSFTCLLLEEQ | 3.29 ± 0.057 |
| TLGTLRQ | 1.59 ± 0.23 |
| TLGYKFWMGRYRVNSAYGFE | -0.005 ± 0.61 |
| TLMCFYYFEQ | 9.395 ± 0.053 |
| TLMQSYVQFWYTLYSHNNWL | -0.698 ± 0.24 |
| TLPRSII | -0.113 ± 1.1 |
| TLPVPPGCRFVEITV | 0.293 ± 0.53 |
| TLRTFRRAQGTRYVYLK | 0.121 ± 0.23 |
| TLSKVFRVRPGSMTTHCYIV | inactive |
| TLTSSCVNFINMLHEIFRYS | -0.623 ± 1 |
| TLVSWYSTTEPAC | -1.13 ± 0.78 |

| Substance | amyloid nucleation score |
| --- | --- |
| TLWYRLFLVSISVFPKFVTE | -0.451 ± 1.1 |
| TLYWNKSQRYGLLWFKFVSL | -0.277 ± 1 |
| TMMSLSGIVL | -0.376 ± 0.48 |
| TMSFFLGSLEVL | -1.09 ± 0.48 |
| TMYFILLCMLLRGFSSGPPP | -1.04 ± 0.78 |
| TNCHLFVSFFLCVDVYTVVC | 4.72 ± 0.063 |
| TNDVTSWKLTHCYLWPKADF | -0.328 ± 0.32 |
| TNHYSSVRS | -0.195 ± 0.54 |
| TPSFLLMICRNMVLGCG | 0.472 ± 0.8 |
| TQSWDEWSYGNITGSTSYRL | 0.25 ± 0.23 |
| TQSWVAISLVRHRSWGSWLG | 3.57 ± 0.07 |
| TRDSLGRKGYRSAVLTPSMP | 1.29 ± 0.14 |
| TRETHLGNAFA | 0.674 ± 0.53 |
| TRFCCVATHFDYNLIIFYYP | 0.554 ± 0.23 |
| TRGITCRLAYLQSLVNE | 0.383 ± 0.43 |
| TRGIVGFPD | 3.93 ± 0.067 |
| TRIRWWF | 4.21 ± 0.067 |
| TRLLIVDFNIFSIEIVHLMS | 2.41 ± 0.071 |
| TRMHESIWV | 1.73 ± 0.077 |
| TRNAFNCTENISTLPTARYL | -0.399 ± 0.46 |
| TRSHLFGYSVMGSSLIDSLY | -1.24 ± 0.79 |
| TRSMSSAPADCVASGT | -0.512 ± 0.76 |

| Substance | amyloid nucleation score |
| --- | --- |
| TRVAYRI | 0.219 ± 1 |
| TRYHLHSALT | -0.12 ± 1 |
| TSDPEFV | -0.627 ± 0.49 |
| TSHRWAMGSRYEVHIAVGMF | 1.13 ± 0.26 |
| TSISLLFWCVYSLASVGFSA | -0.586 ± 1.1 |
| TSLMRYIPMGHLKAWIFLSI | 0.049 ± 1.1 |
| TSNLFHLYGACRRYMGRCSA | 0.434 ± 0.66 |
| TSNNVCCARHPI | 1.37 ± 0.29 |
| TSQLSFYKHSLVY | inactive |
| TSSFIRLNYSNALLNKFWSN | -1.99 ± 0.75 |
| TSTCNRRVIWMHLEPGELCV | -0.375 ± 0.76 |
| TSVASGRNGNSPVHNALAWG | 0.2 ± 0.35 |
| TSVYFHFGFPPWVGVPRRLT | 3.17 ± 0.077 |
| TSYIVDTSSLFITRASTG | 0.336 ± 0.44 |
| TSYYLDL | -1.31 ± 0.75 |
| TTDSGAVYSGLPE | 0.542 ± 0.19 |
| TTICVFNVGESHMRLSGSVG | -0.053 ± 0.28 |
| TTILEL | -0.305 ± 0.79 |
| TTRYANWNMNINLGL | 6.613 ± 0.046 |
| TVALNSWARHGEML | -0.375 ± 1.1 |
| TVCWEWSSLWDTPSLKSAD | 0.536 ± 0.37 |
